Columns and labels:
[1] = system: HIV-2; assay: HIV-2 replication in infected iDCs, p24 ELISA in culture supernatant; assay type: cell-based; details: HIV-2-infected iDC, day 3 of infection
Protocol: FIGS. 6 (a), (b) and (c). Exogenous rh-HMGB1 triggers HIV-1 and HIV-2 replication in iDC. (a) HIV-1-infected iDC were cultured alone or in the presence of aNK cells for 3 days. Rh-HMGB1 (1 μg/ml) was added in some cultures. HIV replication was measured by p24 quantification in culture supernatant (b) HIV1-infected iDC were cultured alone or in the presence of aNK cells for 3 days. Blocking anti-HMGB1 antibodies (10 μg/ml) or glycyrrhizin (10 μg/ml) were added at culture initiation. HIV replication was measured by p24 quantification in culture supernatant. The mean±sd of three independent experiments is shown. Statistical comparisons were made with the non parametric Mann-Whitney test. * p<0.05; (c) HIV-2-infected iDC were cultured alone or in the presence of aNK cells for 3 days. Rh-HMGB1 (1 μg/ml) was added in some cultures. HIV replication was measured by p24 quantification in culture supernatant. […]
2—NK-DC cocultures: cells were harvested, washed three times with RPMI containing 10% FCS and, when indicated, aNK cells were added at a NK:DC ratio of 1:5. […] NK-DC cocultures lasted 3 to 7 days before quantification of viral production in culture supernatants.
3—Quantification of HIV-2 viral production: the concentration of HIV-2 particles in the supernatants was determined with the p24 ELISA kit (Ingen, Belgium).

[2] = system: iDCs; assay: Phenotypic maturation of iDCs cultured with rh-HMGB1 or LPS (flow cytometry); assay type: cell-based, human
Protocol: FIG. 1 (a)-(e). aNK cells induce the maturation of primary immature HIV-1-infected DCs. (a) iDCs, generated from purified CD14^+ monocytes in the presence of IL-4 and GM-CSF, were cocultured during 24 h with aNK cells at different ratios. DC survival was determined by flow cytometry with the 7-AAD assay. Surviving DCs were identified as 7AAD^−CD56^− cells. Data represent three independent experiments and values are means±sd. (b) aNK cells induce the maturation of iDCs. Flow cytometry analysis of iDCs, which were either infected with R5-HIV-1 BaL (1 ng/ml of p24) for 3 h or uninfected, were incubated with rNK cells or aNK cells at a ratio of 1:5. Co-staining with HLA-DR and CD86 specific antibodies allowed the identification of mature DCs (CD86^brightHLA-DR^bright) Data from a representative experiment out of three independent experiments are shown. (c) The conditions of infection used in this study were those of a productive infection of iDCs, as shown at day 3 by a significant p24 detection in culture supernatant of infected iDCs and intracellular detection by flow cytometry of p24 in DC targeted by CD40 expression. […] The proportion of mDCs induced by LPS (DC0) (78.1% CD86^brightHLA-DR^bright) is shown as a positive control. […]
FIG. 3 (a)-(e). aNK-dependent maturation of HIV-1-infected iDCs is mediated by HMGB1 and involves RAGE. […] The maturation status of DCs was determined by flow cytometry with CD86 and HLA-DR—specific antibodies. […] Cells were then stained with anti-CD86, -HLA-DR, -CD80, -CD83, DC-LAMP and -CD40 antibodies and analyzed by flow cytometry. (c) Influence of rh-HMGB1 on cytokine and chemokine production (determined by MAP) by DCs. iDCs (10^6 cells/ml) were incubated for 48 h in medium or in presence of rh-HMGB1 (1 or 10 μg/ml). […] (e) iDC, DC0, uninfected or HIV-1-infected iDC cocultured for 24 h with aNK cells, were incubated with rh-HMGB1 (1 μg/ml) and subsequently stained with anti-RAGE antibodies and analyzed by flow cytometry. […]

B1: rh-HMGB1: recombinant human HMGB1 protein (R&D Systems) (protein, UniProt P09429 1-215, looked up)
High mobility group protein B1: MGKGDPKKPRGKMSSYAFFVQTCREEHKKKHPDASVNFSEFSKKCSERWKTMSAKEKGKFEDMAKADKARYEREMKTYIPPKGETKKKFKDPNAPKRPPSAFFLFCSEYRPKIKGEHPGLSIGDVAKKLGEMWNNTAADDKQPYEKKAAKLKEKYEKDIAAYRAKGKPDAAKKGVVKAEKSKKKKEEEEDEEDEEDEEEEEDEEDEDEEEDDDDE
**Q.** Which “HIV-2 viral replication (p24 in supernatant)” value [1] does the source give for B1 here?
**A.** slight increase in viral replication

**Q.** What about the “percentage of CD86bright HLA-DRbright DCs” value ([2]; 10 μg/ml, 48 h of culture, medium alone 65%) of the same molecule?
**A.** 71%

**Q.** What about the “phenotypic maturation of iDC” value ([2]; 24 h with 1 to 10 μg/ml, similar at 48 h) of the same molecule?
**A.** did not induce phenotypic maturation of iDC

**Q.** What about the “maturation status by CD80, CD83 and DC-lamp expression” value ([2]; rh-HMGB1-treated DCs, 48 h, compared with DC0) of the same molecule?
**A.** not fully mature

Source: patent US10012655B2, “Method for quantitating total HMGB1 protein in biological samples” (INSTITUT PASTEUR, priority 2008, dated 2018)
